PMC9829517

What was measured:
[1] = target: Ndd^JamL-LipPKS1* (Moorea producens | not stated)

Molecule: JamC(E32T)-Cdd^JamK
- combined titer of 7 and 8 in E. coli (maximum amount of product) [1]: 16 mg/L
- combined titer of 7 and 8 in E. coli, against unmodified JamC/LipPKS1* [1]: 39 fold

B1: JamC (E32T) (natural protein)
chain: MENLTVETQNLTSLDNGSIEEKNGPTVDEVQTWLISYLSQLLDLEIEEISTSTSFNRYGLDSSASISLTSDFGDWISKEIDPTILYSYPTIEAMAEHFGA
modifications: holo-ACP, acyl chain loaded by JamA; residue not stated
- in vitro product formation assay: formation of 7 against wild-type JamC (LipPKS1*): 7 fold

B2: JamC (E32H) (natural protein)
chain: MENLTVETQNLTSLDNGSIEEKNGPTVDEVQHWLISYLSQLLDLEIEEISTSTSFNRYGLDSSASISLTSDFGDWISKEIDPTILYSYPTIEAMAEHFGA
modifications: holo-ACP, acyl chain loaded by JamA; residue not stated
- in vitro product formation assay: formation of 7 against wild-type JamC (DEBSM6*): 2 fold
